Test results: patent US20210388110A1 (published 2021)

What was measured:
soluble human CD3ε chain [1] = molecular target: T1, soluble human CD3ε chain (human, UniProt P07766 23-126, limits assumed); experiment: SPR (Biacore)
T1 construct: the text says soluble human CD3ε chain; also called human CD3 epsilon chain
T1 sequence (P07766 23-126 limits assumed): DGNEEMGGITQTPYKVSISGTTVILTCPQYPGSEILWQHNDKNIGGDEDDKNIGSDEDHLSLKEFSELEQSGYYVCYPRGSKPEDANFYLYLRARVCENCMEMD

soluble human CD3ε chain [2] = molecular target: T2, soluble human CD3ε chain (human, UniProt P07766 23-126, limits assumed); experiment: SPR (Biacore), soluble human CD3ε chain
T2 construct: also called human CD3 epsilon chain
T2 sequence (P07766 23-126 limits assumed): as above

B1: TR01H040-E22Hh/none-Hi-Kn010G3/L0000vk1-k0 (antibody, human IgG1, kappa, L234A L235A, N297A)
heavy: QVQLVESGGGLVQPGRSLRLSCAASGFTFSNAWMHWVRQAPGKGLEWVAQIKDKSQNYATYYAESVKGRFTISRADSKNSIYLQMNSLKTEDTAVYYCRYVHYSASYGVDAWGQGTTVTVSSASTKGPSVFPLAPSSKSTSGGTAALGCLVKDYFPEPVTVSWNSGALTSGVHTFPAVLQSSGLYSLSSVVTVPSSSLGTQTYICNVNHKPSNTKVDKKVEPKSCDKTHTCPPCPAPEAAGGPSVFLFPPKPKDTLMISRTPEVTCVVVDVSHEDPEVKFNWYVDGVEVHNAKTKPREEQYASTYRVVSVLTVLHQDWLNGKEYKCKVSNKALPAPIEKTISKAKGQPREPQVYTLPPSRCELTKNQVSLSCAVKGFYPSDIAVEWESNGQPENNYKTTPPVLDSDGSFFLVSKLTVDKSRWQQGNVFSCSVMHEALHNHYTQKSLSLSPDYKDDDDK
chain: EPKSSDKTHTCPPCPAPELLGGPSVFLFPPKPKDTLMISRTPEVTCVVVDVSHEDPEVKFNWYVDGVEVHNAKTKPREEQYNSTYRVVSVLTVLHQDWLNGKEYKCKVSNKALPAPIEKTISKAKGQPREPQVCTLPPSRDELTKNQVSLWCLVKGFYPSDIAVEWESNGQPENNYKTTPPVLDSDGSFFLYSKLTVDKSRWQQGNVFSCSVMHEALHNRYTQKSLSLSP
light: DIQMTQSPSSLSASVGDRVTITCRSSQSLVHSNRNTYLHWYQQKPGKAPKLLIYKVSNRFSGVPSRFSGSGSGTDFTFTISSLQPEDIATYYCGQGTQVPYTFGQGTKVEIKRTVAAPSVFIFPPSDEQLKSGTASVVCLLNNFYPREAKVQWKVDNALQSGNSQESVTEQDSKDSTYSLSSTLTLSKADYEKHKVYACEVTHQGLSSPVTKSFNRGEC
notes: single-arm
Binder B1 has a Kd (soluble human CD3ε chain [1]) of 46.9 nM.

B2: TR01H077-E22Hh/none-Hi-Kn010G3/L0200-k0 (antibody, human IgG1, kappa, L234A L235A, N297A)
heavy: QVQLVESGGGLVQPGRSLRLSCAASGFTFSNAWMHWVRQAPGKGLEWVAQIKDKSNNYATYYAESVKGRFTISRADSKNSIYLQMNSLKTEDTAVYYCRYVHYAAAEMVRDDIWGQGTTVTVSSASTKGPSVFPLAPSSKSTSGGTAALGCLVKDYFPEPVTVSWNSGALTSGVHTFPAVLQSSGLYSLSSVVTVPSSSLGTQTYICNVNHKPSNTKVDKKVEPKSCDKTHTCPPCPAPEAAGGPSVFLFPPKPKDTLMISRTPEVTCVVVDVSHEDPEVKFNWYVDGVEVHNAKTKPREEQYASTYRVVSVLTVLHQDWLNGKEYKCKVSNKALPAPIEKTISKAKGQPREPQVYTLPPSRCELTKNQVSLSCAVKGFYPSDIAVEWESNGQPENNYKTTPPVLDSDGSFFLVSKLTVDKSRWQQGNVFSCSVMHEALHNHYTQKSLSLSPDYKDDDDK
chain: EPKSSDKTHTCPPCPAPELLGGPSVFLFPPKPKDTLMISRTPEVTCVVVDVSHEDPEVKFNWYVDGVEVHNAKTKPREEQYNSTYRVVSVLTVLHQDWLNGKEYKCKVSNKALPAPIEKTISKAKGQPREPQVCTLPPSRDELTKNQVSLWCLVKGFYPSDIAVEWESNGQPENNYKTTPPVLDSDGSFFLYSKLTVDKSRWQQGNVFSCSVMHEALHNRYTQKSLSLSP
light: DIVMTQSPLSLPVTPGEPASISCRPSQSPVHSNRNTYLHWYQQKPGQAPRLLIYKVSNRFSGVPDRFSGSGSGTDFTLKISRVEAEDVGVYYCGQGTQVPYTFGQGTKLEIKRTVAAPSVFIFPPSDEQLKSGTASVVCLLNNFYPREAKVQWKVDNALQSGNSQESVTEQDSKDSTYSLSSTLTLSKADYEKHKVYACEVTHQGLSSPVTKSFNRGEC
notes: single-arm
Work on B2 yielded a Kd (soluble human CD3ε chain [1]) of 6.12 nM.

B3: TR01H067-E22Hh/none-Hi-Kn010G3/L0000-k0 (antibody, human IgG1, kappa, L234A L235A, N297A)
heavy: QVQLVESGGGLVQPGRSLRLSCAASGFTFSNAWMHWVRQAPGKGLEWVAQIKDKSQNYATYYAESVKGRFTISRDDSKNSLYLQMNSLKTEDTAVYYCRYVHYAASYGVDAWGQGTTVTVSSASTKGPSVFPLAPSSKSTSGGTAALGCLVKDYFPEPVTVSWNSGALTSGVHTFPAVLQSSGLYSLSSVVTVPSSSLGTQTYICNVNHKPSNTKVDKKVEPKSCDKTHTCPPCPAPEAAGGPSVFLFPPKPKDTLMISRTPEVTCVVVDVSHEDPEVKFNWYVDGVEVHNAKTKPREEQYASTYRVVSVLTVLHQDWLNGKEYKCKVSNKALPAPIEKTISKAKGQPREPQVYTLPPSRCELTKNQVSLSCAVKGFYPSDIAVEWESNGQPENNYKTTPPVLDSDGSFFLVSKLTVDKSRWQQGNVFSCSVMHEALHNHYTQKSLSLSPDYKDDDDK
chain: EPKSSDKTHTCPPCPAPELLGGPSVFLFPPKPKDTLMISRTPEVTCVVVDVSHEDPEVKFNWYVDGVEVHNAKTKPREEQYNSTYRVVSVLTVLHQDWLNGKEYKCKVSNKALPAPIEKTISKAKGQPREPQVCTLPPSRDELTKNQVSLWCLVKGFYPSDIAVEWESNGQPENNYKTTPPVLDSDGSFFLYSKLTVDKSRWQQGNVFSCSVMHEALHNRYTQKSLSLSP
light: DIVMTQSPLSLPVTPGEPASISCRSSQSLVHSNRNTYLHWYQQKPGQAPRLLIYKVSNRFSGVPDRFSGSGSGTDFTLKISRVEAEDVGVYYCGQGTQVPYTFGQGTKLEIKRTVAAPSVFIFPPSDEQLKSGTASVVCLLNNFYPREAKVQWKVDNALQSGNSQESVTEQDSKDSTYSLSSTLTLSKADYEKHKVYACEVTHQGLSSPVTKSFNRGEC
notes: one-arm antibody (single Fab) with Fab-less hinge-Fc chain Hi-Kn010G3
For B3, the Kd (soluble human CD3ε chain [2]) was 71.5 nM.

B4: TR01H080-E22Hh/none-Hi-Kn010G3/L0000-k0 (antibody, human IgG1, kappa, L234A L235A, N297A)
heavy: QVQLVESGGGLVQPGRSLRLSCAASGFTFSNAWMHWVRQAPGKGLEWVAQIKDKSNNYATYYAESVKGRFTISRADSKNSIYLQMNSLKTEDTAVYYCRYVHYAAVRRRLSSYGVDIWGQGTTVTVSSASTKGPSVFPLAPSSKSTSGGTAALGCLVKDYFPEPVTVSWNSGALTSGVHTFPAVLQSSGLYSLSSVVTVPSSSLGTQTYICNVNHKPSNTKVDKKVEPKSCDKTHTCPPCPAPEAAGGPSVFLFPPKPKDTLMISRTPEVTCVVVDVSHEDPEVKFNWYVDGVEVHNAKTKPREEQYASTYRVVSVLTVLHQDWLNGKEYKCKVSNKALPAPIEKTISKAKGQPREPQVYTLPPSRCELTKNQVSLSCAVKGFYPSDIAVEWESNGQPENNYKTTPPVLDSDGSFFLVSKLTVDKSRWQQGNVFSCSVMHEALHNHYTQKSLSLSPDYKDDDDK
chain: EPKSSDKTHTCPPCPAPELLGGPSVFLFPPKPKDTLMISRTPEVTCVVVDVSHEDPEVKFNWYVDGVEVHNAKTKPREEQYNSTYRVVSVLTVLHQDWLNGKEYKCKVSNKALPAPIEKTISKAKGQPREPQVCTLPPSRDELTKNQVSLWCLVKGFYPSDIAVEWESNGQPENNYKTTPPVLDSDGSFFLYSKLTVDKSRWQQGNVFSCSVMHEALHNRYTQKSLSLSP
light: DIVMTQSPLSLPVTPGEPASISCRSSQSLVHSNRNTYLHWYQQKPGQAPRLLIYKVSNRFSGVPDRFSGSGSGTDFTLKISRVEAEDVGVYYCGQGTQVPYTFGQGTKLEIKRTVAAPSVFIFPPSDEQLKSGTASVVCLLNNFYPREAKVQWKVDNALQSGNSQESVTEQDSKDSTYSLSSTLTLSKADYEKHKVYACEVTHQGLSSPVTKSFNRGEC
notes: single-arm
With B4 the Kd (soluble human CD3ε chain [1]) was 3.25 nM.

B5: CE115HA124-E22Hh//-Hi-Kn010G3/L0000-k0 (antibody, human IgG1, kappa, L234A L235A, N297A)
heavy: QVQLVESGGGVVQPGRSLRLSCAASGFTFSNAWMHWVRQAPGKGLEWVAQIKALSNNYATYYAESVKGRFTISRDDSKNSLYLQMNSLKTEDTAVYYCRYVHYGAYYGVDAWGQGTTVTVSSASTKGPSVFPLAPSSKSTSGGTAALGCLVKDYFPEPVTVSWNSGALTSGVHTFPAVLQSSGLYSLSSVVTVPSSSLGTQTYICNVNHKPSNTKVDKKVEPKSCDKTHTCPPCPAPEAAGGPSVFLFPPKPKDTLMISRTPEVTCVVVDVSHEDPEVKFNWYVDGVEVHNAKTKPREEQYASTYRVVSVLTVLHQDWLNGKEYKCKVSNKALPAPIEKTISKAKGQPREPQVYTLPPSRCELTKNQVSLSCAVKGFYPSDIAVEWESNGQPENNYKTTPPVLDSDGSFFLVSKLTVDKSRWQQGNVFSCSVMHEALHNHYTQKSLSLSPDYKDDDDK
chain: EPKSSDKTHTCPPCPAPELLGGPSVFLFPPKPKDTLMISRTPEVTCVVVDVSHEDPEVKFNWYVDGVEVHNAKTKPREEQYNSTYRVVSVLTVLHQDWLNGKEYKCKVSNKALPAPIEKTISKAKGQPREPQVCTLPPSRDELTKNQVSLWCLVKGFYPSDIAVEWESNGQPENNYKTTPPVLDSDGSFFLYSKLTVDKSRWQQGNVFSCSVMHEALHNRYTQKSLSLSP
light: DIVMTQSPLSLPVTPGEPASISCRSSQSLVHSNRNTYLHWYQQKPGQAPRLLIYKVSNRFSGVPDRFSGSGSGTDFTLKISRVEAEDVGVYYCGQGTQVPYTFGQGTKLEIKRTVAAPSVFIFPPSDEQLKSGTASVVCLLNNFYPREAKVQWKVDNALQSGNSQESVTEQDSKDSTYSLSSTLTLSKADYEKHKVYACEVTHQGLSSPVTKSFNRGEC
notes: one-arm antibody (single Fab) with Fab-less hinge-Fc chain Hi-Kn010G3; label '//-Hi-Kn010G3' read as none-Hi-Kn010G3
For B5, the Kd (soluble human CD3ε chain [2]) was 143 nM.

B6: TR01H079-E22Hh/none-Hi-Kn010G3/L0000-k0 (antibody, human IgG1, kappa, L234A L235A, N297A)
heavy: QVQLVESGGGLVQPGRSLRLSCAASGFTFSNAWMHWVRQAPGKGLEWVAQIKDKSNNYATYYAESVKGRFTISRADSKNSIYLQMNSLKTEDTAVYYCRYVHYAAAEMVRDSYGVDIWGQGTTVTVSSASTKGPSVFPLAPSSKSTSGGTAALGCLVKDYFPEPVTVSWNSGALTSGVHTFPAVLQSSGLYSLSSVVTVPSSSLGTQTYICNVNHKPSNTKVDKKVEPKSCDKTHTCPPCPAPEAAGGPSVFLFPPKPKDTLMISRTPEVTCVVVDVSHEDPEVKFNWYVDGVEVHNAKTKPREEQYASTYRVVSVLTVLHQDWLNGKEYKCKVSNKALPAPIEKTISKAKGQPREPQVYTLPPSRCELTKNQVSLSCAVKGFYPSDIAVEWESNGQPENNYKTTPPVLDSDGSFFLVSKLTVDKSRWQQGNVFSCSVMHEALHNHYTQKSLSLSPDYKDDDDK
chain: EPKSSDKTHTCPPCPAPELLGGPSVFLFPPKPKDTLMISRTPEVTCVVVDVSHEDPEVKFNWYVDGVEVHNAKTKPREEQYNSTYRVVSVLTVLHQDWLNGKEYKCKVSNKALPAPIEKTISKAKGQPREPQVCTLPPSRDELTKNQVSLWCLVKGFYPSDIAVEWESNGQPENNYKTTPPVLDSDGSFFLYSKLTVDKSRWQQGNVFSCSVMHEALHNRYTQKSLSLSP
light: DIVMTQSPLSLPVTPGEPASISCRSSQSLVHSNRNTYLHWYQQKPGQAPRLLIYKVSNRFSGVPDRFSGSGSGTDFTLKISRVEAEDVGVYYCGQGTQVPYTFGQGTKLEIKRTVAAPSVFIFPPSDEQLKSGTASVVCLLNNFYPREAKVQWKVDNALQSGNSQESVTEQDSKDSTYSLSSTLTLSKADYEKHKVYACEVTHQGLSSPVTKSFNRGEC
notes: single-arm
Binder B6 has a Kd (soluble human CD3ε chain [1]) of 50.5 nM.
